Values quoted from earlier work in PMC3158961.
Where two headings read alike, the source gives them in different places. Each block holds one substance with its values, some of them ahead of it.

Experiments:
CEP55 (Homo sapiens) [1] = biological target: CEP55 (Homo sapiens) (UniProt Q53EZ4)
Nedd4 WW3 = Nedd4 WW3 (UniProt P46934)
CEP55 (Homo sapiens) [2] = biological target: CEP55 (Homo sapiens) (UniProt Q53EZ4); remark: listed apart in the source

Chain of UniProt Q53EZ4 (Q53EZ4 whole entry): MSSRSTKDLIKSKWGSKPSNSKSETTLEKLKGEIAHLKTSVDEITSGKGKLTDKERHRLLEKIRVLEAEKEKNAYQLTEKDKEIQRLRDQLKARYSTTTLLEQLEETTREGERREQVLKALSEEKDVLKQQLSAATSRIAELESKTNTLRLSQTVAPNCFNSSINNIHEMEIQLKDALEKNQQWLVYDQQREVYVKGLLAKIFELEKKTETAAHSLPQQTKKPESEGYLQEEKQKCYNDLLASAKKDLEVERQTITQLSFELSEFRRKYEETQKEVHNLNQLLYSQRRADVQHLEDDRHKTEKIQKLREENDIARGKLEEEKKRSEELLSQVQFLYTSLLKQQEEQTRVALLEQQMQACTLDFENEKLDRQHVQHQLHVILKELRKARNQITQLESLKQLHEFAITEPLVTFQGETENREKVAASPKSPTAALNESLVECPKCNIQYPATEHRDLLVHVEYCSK
Chain of UniProt P46934 (P46934 840-873): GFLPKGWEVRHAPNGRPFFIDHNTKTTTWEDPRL

- Kd (CEP55 (Homo sapiens) [1]): 1 µM
Substance: TSG101 GPPX3Y peptide (from UniProt Q99816)

- Kd (Nedd4 WW3): 20 µM
Substance: ENaC β subunit PPXY peptide (from UniProt P51168)

- Kd (CEP55 (Homo sapiens) [2]): 1 µM
Substance: ALIX GPPX3Y peptide (from UniProt Q8WUM4)
